The values that follow come from US8933021B2, “Insulin derivative” (Novo Nordisk A/S, priority 2006, dated 2015).

One data set deals with human insulin receptor (Homo sapiens, UniProt P06213). Put plainly: Insulin receptor binding, SPA antibody capture assay. As for the experimental part:
SPA-PVT antibody-binding beads, anti-mouse reagent (Amersham Biosciences, Cat No. PRNQ0017) were mixed with 25 ml of binding buffer (100 mM HEPES pH 7.8; 100 mM sodium chloride, 10 mM MgSO4, 0.025% Tween-20). […] A total of 100 μl was then added and a dilution series is made from appropriate samples. To the dilution series was then added 100 μl of reagent mix and the samples were incubated for 16 hours while gently shaken. The phases were the then separated by centrifugation for 1 min and the plates counted in a Topcounter. The binding data were fitted using the nonlinear regression algorithm in the GraphPad Prism 2.01 (GraphPad Software, San Diego, Calif.).

The nature of data set [1]: Hydrophobicity (hydrophobic index k'rel) relative to human insulin by isocratic RP-HPLC. It is filed as physicochemical. As for the experimental part:
The elution was monitored by following the UV absorption of the eluate at 214 nm. Void time, t0, was found by injecting 0.1 mM sodium nitrate.

Data set [2] can be described thus: Self-association by size exclusion chromatography (SEC), Kav. Type of data set: physicochemical. On the procedure:
The ability of the insulin derivatives of the invention to self-associate into large, but soluble complexes is analysed using SEC (size exclusion chromatography):
The following equation is used to determine the Kav for the derivative: Kav=(t−t0)/(Vt/(f+td−t0)) Where t is the retention time for a given peak, t0 is the retention time for Blue dextran, Vt is the total column volume (here 2.4 ml), f is the flow (here 0.04 ml/min), and td is the retention time for Blue dextran without the column in the system.
For orientation: SEC sorts molecules by how far they enter the pores of the column.

Where [3] appears, read: recombinant human insulin receptor-exon 11, SPA.
The mark [4] stands for this setting: LiChrosorb RP18, 40° C., pH 7.3, HI = 1.

human insulin receptor, sequence (P06213 28-746 isoform P06213-2 limits assumed): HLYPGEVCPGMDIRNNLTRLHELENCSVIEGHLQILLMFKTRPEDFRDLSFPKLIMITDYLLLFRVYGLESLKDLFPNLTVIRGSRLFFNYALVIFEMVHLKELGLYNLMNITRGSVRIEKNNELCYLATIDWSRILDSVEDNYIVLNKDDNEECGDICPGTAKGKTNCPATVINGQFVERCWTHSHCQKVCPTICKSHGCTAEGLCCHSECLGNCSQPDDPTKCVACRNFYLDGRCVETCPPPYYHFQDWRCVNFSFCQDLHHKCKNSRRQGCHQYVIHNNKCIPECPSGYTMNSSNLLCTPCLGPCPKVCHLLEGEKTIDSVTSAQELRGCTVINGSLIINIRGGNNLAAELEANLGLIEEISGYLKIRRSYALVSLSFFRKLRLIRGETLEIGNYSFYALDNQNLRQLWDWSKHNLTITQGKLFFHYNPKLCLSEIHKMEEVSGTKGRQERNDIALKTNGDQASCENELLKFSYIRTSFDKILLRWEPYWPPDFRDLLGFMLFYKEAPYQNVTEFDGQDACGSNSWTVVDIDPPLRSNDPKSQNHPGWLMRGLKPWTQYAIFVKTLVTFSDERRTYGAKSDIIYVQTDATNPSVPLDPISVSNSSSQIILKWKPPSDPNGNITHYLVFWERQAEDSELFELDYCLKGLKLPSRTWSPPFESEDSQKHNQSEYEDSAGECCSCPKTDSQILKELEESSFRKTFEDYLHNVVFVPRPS
human insulin receptor, sequence (P06213 763-1382 partner limits assumed): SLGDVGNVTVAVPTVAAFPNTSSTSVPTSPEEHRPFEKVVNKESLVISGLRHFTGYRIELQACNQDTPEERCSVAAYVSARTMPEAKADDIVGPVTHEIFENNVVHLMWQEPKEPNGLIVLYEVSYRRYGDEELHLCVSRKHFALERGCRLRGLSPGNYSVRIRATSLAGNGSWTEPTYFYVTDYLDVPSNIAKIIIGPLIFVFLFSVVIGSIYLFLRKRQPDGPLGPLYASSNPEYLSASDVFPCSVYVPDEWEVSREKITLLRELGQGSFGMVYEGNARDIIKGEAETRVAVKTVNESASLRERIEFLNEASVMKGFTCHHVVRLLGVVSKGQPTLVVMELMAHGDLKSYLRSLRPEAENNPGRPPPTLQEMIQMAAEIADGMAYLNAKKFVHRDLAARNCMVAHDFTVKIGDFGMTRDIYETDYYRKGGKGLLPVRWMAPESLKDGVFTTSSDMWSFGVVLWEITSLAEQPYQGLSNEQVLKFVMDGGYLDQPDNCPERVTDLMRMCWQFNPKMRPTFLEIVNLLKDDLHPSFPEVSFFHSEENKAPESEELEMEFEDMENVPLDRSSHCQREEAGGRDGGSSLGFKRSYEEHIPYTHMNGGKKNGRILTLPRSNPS

Take “N^εB29-(3-(3-{4-[3-(7-carboxyheptanoylamino)propoxy]butoxy}propylcarbamoyl)-propionyl-γ-glutamylamide) desB30 human Insulin [Example 11]”: the “Insulin receptor affinity relative to human insulin” value in the data set with human insulin receptor (class symbol) is on record as “++ (5-50%: ++)”; with human insulin receptor (setting [3]), 43%. Further, the “Hydrophobicity relative to human insulin” value was 0.435 in data set [1] (setting [4]) and “+++ (k'rel < 1: +++)” in data set [1] (class symbol, HI = 1).

In the case of “N^εB29-ω-carboxy-pentadecanoyl-γ-L-aspartylamide desB30 human insulin [Example 6]”, the “Insulin receptor affinity relative to human insulin” value was “++ (5-50%: ++)” at human insulin receptor (class symbol) and 33% at human insulin receptor (setting [3]).

Take “N^εB29-ω-carboxy-undecanoyl-δ-amino-butanoyl desB30 human insulin [Example 13]”: the “Self-association: Kav” value is given as 0.69 in data set [2] (SEC Superose 6, 37° C., 0.6 mM derivative, 2.1 Zn2+/hexamer, 16 mM phenol, pH 7.8, one value per peak) and “+ (Kav ≧ 0.55: +)” in data set [2] (class symbol). Moreover, the “Self-association: % area of peak” value in data set [2] (area of the peak whose Kav is in the cell above) is reported as “(100%)”. Besides, the entries for the “Insulin receptor affinity relative to human insulin” value in the data set with human insulin receptor (class symbol) and with human insulin receptor (setting [3]) were “+++ (>50%: +++)” and 59%, respectively. The “Hydrophobicity relative to human insulin” value in data set [1] (setting [4]) is 0.552; in data set [1] (class symbol, HI = 1) it was “+++ (k'rel < 1: +++)”.
